Results on 2 molecules are retold here after US20260209293A1 (Novo Nordisk, published 2026).

*1 amine or outer side, *2 acyl side, *3 side chain or, on linkers, in order; H or OH if unused. The star is where a group is joined. C18 diacid = O=C(O)CCCCCCCCCCCCCCCCC(=O)*; γGlu = O=C(O)[C@H](CCC(=O)[*:2])N[*:1]

Assay [1] addresses T1, human calcitonin receptor (a) (human, UniProt P30988 25-474).
T1 sequence (looked up): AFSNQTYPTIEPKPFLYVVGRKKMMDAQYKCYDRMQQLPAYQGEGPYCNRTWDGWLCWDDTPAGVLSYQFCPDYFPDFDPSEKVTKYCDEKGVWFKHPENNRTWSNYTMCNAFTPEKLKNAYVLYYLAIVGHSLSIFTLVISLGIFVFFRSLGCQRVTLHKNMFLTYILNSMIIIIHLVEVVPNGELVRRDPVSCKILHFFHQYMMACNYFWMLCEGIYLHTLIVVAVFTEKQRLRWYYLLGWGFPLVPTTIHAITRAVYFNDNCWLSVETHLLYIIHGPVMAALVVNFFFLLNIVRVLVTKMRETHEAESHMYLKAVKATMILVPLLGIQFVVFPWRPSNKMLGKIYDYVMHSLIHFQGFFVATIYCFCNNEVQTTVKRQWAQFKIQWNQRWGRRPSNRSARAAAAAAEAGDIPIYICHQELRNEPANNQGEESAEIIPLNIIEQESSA
Description: cell-based or functional assay.

For assay [2], the target named is T2, human amylin-3(a) receptor (human, UniProt P30988 25-474; O60896 24-148).
T2 sequence (looked up) 1: T1 sequence (looked up)
T2 sequence (looked up) 2: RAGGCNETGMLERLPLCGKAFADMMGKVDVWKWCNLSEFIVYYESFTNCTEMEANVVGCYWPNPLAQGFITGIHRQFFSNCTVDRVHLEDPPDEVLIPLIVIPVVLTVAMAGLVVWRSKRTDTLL
Description: cell-based or functional assay.

B1: N^1-[(4S)-4-carboxy-4-(17-carboxyheptadecanoylamino)butanoyl]-[Ala1,Ser2,Gln3,Leu4,Ser5,Ala7,Gln8,Ala10,Glu14,His17,Asp21,Pro25,Pro28,Pro29,Asp31,Pro37]-human … (peptide)
peptide: {C18 diacid-γGlu}-ASQLSTAQTARLAEFLHHSSDNFGPILPPTDVGSNTP-NH2
SMILES: CC[C@H](C)[C@H](NC(=O)[C@@H]1CCCN1C(=O)CNC(=O)[C@H](Cc1ccccc1)NC(=O)[C@H](CC(N)=O)NC(=O)[C@H](CC(=O)O)NC(=O)[C@H](CO)NC(=O)[C@H](CO)NC(=O)[C@H](Cc1c[nH]cn1)NC(=O)[C@H](Cc1c[nH]cn1)NC(=O)[C@H](CC(C)C)NC(=O)[C@H](Cc1ccccc1)NC(=O)[C@H](CCC(=O)O)NC(=O)[C@H](C)NC(=O)[C@H](CC(C)C)NC(=O)[C@H](CCCNC(=N)N)NC(=O)[C@H](C)NC(=O)[C@@H](NC(=O)[C@H](CCC(N)=O)NC(=O)[C@H](C)NC(=O)[C@@H](NC(=O)[C@H](CO)NC(=O)[C@H](CC(C)C)NC(=O)[C@H](CCC(N)=O)NC(=O)[C@H](CO)NC(=O)[C@H](C)NC(=O)CC[C@H](NC(=O)CCCCCCCCCCCCCCCCC(=O)O)C(=O)O)[C@@H](C)O)[C@@H](C)O)C(=O)N[C@@H](CC(C)C)C(=O)N1CCC[C@H]1C(=O)N1CCC[C@H]1C(=O)N[C@H](C(=O)N[C@@H](CC(=O)O)C(=O)N[C@H](C(=O)NCC(=O)N[C@@H](CO)C(=O)N[C@@H](CC(N)=O)C(=O)N[C@H](C(=O)N1CCC[C@H]1C(N)=O)[C@@H](C)O)C(C)C)[C@@H](C)O
Take B1: in assay [1], the “hCalcR potency, EC50 (pM); CRE-luciferase reporter in BHK cells” value is 1.86 pM. Further, the “hAmyR3 potency, EC50 (pM); CRE-luciferase reporter in BHK cells” value in assay [2] came to 1.22 pM.

B2: N^1-[(4S)-4-carboxy-4-(17-carboxyheptadecanoylamino)butanoyl]-[Ala1,Ser2,Ala3,Leu4,Ser5,Ala7,Gln8,Ala10,Glu14, His17,Asp21, Pro25, Pro28, Pro29,Asp31, … (peptide)
peptide: {C18 diacid-γGlu}-ASALSTAQTARLAEFLHHSSDNFGPILPPTDVGSNTP-NH2
SMILES: CC[C@H](C)[C@H](NC(=O)[C@@H]1CCCN1C(=O)CNC(=O)[C@H](Cc1ccccc1)NC(=O)[C@H](CC(N)=O)NC(=O)[C@H](CC(=O)O)NC(=O)[C@H](CO)NC(=O)[C@H](CO)NC(=O)[C@H](Cc1c[nH]cn1)NC(=O)[C@H](Cc1c[nH]cn1)NC(=O)[C@H](CC(C)C)NC(=O)[C@H](Cc1ccccc1)NC(=O)[C@H](CCC(=O)O)NC(=O)[C@H](C)NC(=O)[C@H](CC(C)C)NC(=O)[C@H](CCCNC(=N)N)NC(=O)[C@H](C)NC(=O)[C@@H](NC(=O)[C@H](CCC(N)=O)NC(=O)[C@H](C)NC(=O)[C@@H](NC(=O)[C@H](CO)NC(=O)[C@H](CC(C)C)NC(=O)[C@H](C)NC(=O)[C@H](CO)NC(=O)[C@H](C)NC(=O)CC[C@H](NC(=O)CCCCCCCCCCCCCCCCC(=O)O)C(=O)O)[C@@H](C)O)[C@@H](C)O)C(=O)N[C@@H](CC(C)C)C(=O)N1CCC[C@H]1C(=O)N1CCC[C@H]1C(=O)N[C@H](C(=O)N[C@@H](CC(=O)O)C(=O)N[C@H](C(=O)NCC(=O)N[C@@H](CO)C(=O)N[C@@H](CC(N)=O)C(=O)N[C@H](C(=O)N1CCC[C@H]1C(N)=O)[C@@H](C)O)C(C)C)[C@@H](C)O
Take B2: the “hCalcR potency, EC50 (pM); CRE-luciferase reporter in BHK cells” value in assay [1] was 1.58 pM. In addition, the “hAmyR3 potency, EC50 (pM); CRE-luciferase reporter in BHK cells” value in assay [2] was determined as 1.62 pM.
